Assay results as given in patent CN117567617A.

Molecular target: 人CLDN18.2 (human claudin18.2) (human) (UniProt P56856)
Test: cell-based or functional assay

CDC活性 EC50 (Presto Blue, complement): 10.9 µg/mL
B1: 全人源抗CLDN18.2抗体2A2 (CLDN-BC-2A2-hH1) (antibody, V domains shown)
VH: QVQLQQWGPGLVKPSQTLSLTCTVSGGSISSVGYYWSWIRQHPGQGLEWVGYIYYSGGTYYNPSLKSRVTISLDTSKNQFSLKLTSVTAADTAVYYCASYGSVSPYYYYYGMDVWGQGTTVTVSS
VL: DIVMTQSPSSVSASVGDRVTITCRASQGISSWLAWYQQKPGKAPNLLISAASSLQSGVPSRFSGNGSGTDFTLTISSLQPEDFASYYCQQANSFPITFGQGTRLEIK
